Data taken from paper doi:10.1101/2025.10.21.683802.

Tests used:
[1] = target: β2-adrenergic receptor, construct PN1 (monomeric β2AR) (human) (UniProt P07550); assay: BLI; as a1, monomeric β2AR with 10 µM AP; 10 µM Iso; apparent kon and koff; KD from equilibrium responses
[2] = target: β2-adrenergic receptor, construct PN1 (monomeric) (UniProt P07550); assay: BLI; as a14, with AP at 10 μM
[3] = target: AP-bound β2AR dimer (construct PN1 with AP-7-168) (UniProt P07550); assay: SEC; AP-bound dimer with nucleotide-free Gs; peak fractions on SDS-PAGE, ratio of β2AR to Gα bands estimated on gels
[4] = target: β2-adrenergic receptor, construct PN1 (monomeric) (UniProt P07550); assay: BLI; FLAG-tagged β2AR held through biotinylated anti-FLAG M1 Fab on SA tips with 10 μM Iso; Gs 30 nM to 10 μM with 10 μM GDP and 0.1% BSA; NH buffer, 0.01% LMNG, 0.001% CHS; 30°C; KD from equilibrium responses

**Q.** What does the source list for “heterotrimeric Gs (Gαsβ1γ2) (from UniProt P63092 1-394; P62873 1-340; P59768 1-71) (complex)”?
**A.** Kd [1]: 1710 nM; Kd [2]: 1700 nM; stoichiometry N [3]: 2 β2AR per Gα; Kd [4]: 960 nM
